According to the Human Domainome abundance scans (Beltran et al. 2025):
± gives the uncertainty stated by the source.

B1: Double-stranded RNA-binding protein Staufen homolog 1, residues 183 to 249; numbered along this chain, O95793 (parent)
chain: KSEISQVFEIALKRNLPVNFEVARESGPPHMKNFVTKVSVGEFVGEGEGKSKKISKKNAAIAVLEEL

Variants of: B1
Test: abundance fitness (aPCA) (normalised: wild type 0, dead -1); higher = more abundant; growth selection in yeast, the domain comes from the species named
Conditions: Homo sapiens

Abundance fitness, by site and new letter:
R14: Q -0.188 ± 0.064, P -0.594 ± 0.072, S -0.31 ± 0.056, T -0.371 ± 0.073, H -0.155 ± 0.084, L -0.139 ± 0.052, G -0.361 ± 0.047, V -0.6 ± 0.061, N -0.179 ± 0.1, F -0.232 ± 0.15, M 0.014 ± 0.066, K -0.212 ± 0.082, W -0.25 ± 0.07, Y -0.048 ± 0.15, D -0.487 ± 0.092, E -0.334 ± 0.052
E3: P -0.023 ± 0.07, T -0.236 ± 0.056, N -0.396 ± 0.086, Q -0.247 ± 0.062, F -0.177 ± 0.07, V -0.022 ± 0.037, H -0.219 ± 0.072, I -0.001 ± 0.082, L -0.231 ± 0.043, M -0.509 ± 0.055, K -0.194 ± 0.072, D -0.286 ± 0.059, W -0.309 ± 0.082, G -0.551 ± 0.04, R -0.551 ± 0.047, C -0.205 ± 0.064, Y -0.098 ± 0.079, S -0.208 ± 0.045, A -0.049 ± 0.041
I4: M -0.292 ± 0.054, V -0.059 ± 0.037, C -0.417 ± 0.084, R -0.7 ± 0.042, Y -0.74 ± 0.092, W -0.359 ± 0.051, T -0.391 ± 0.062, D -0.388 ± 0.077, F -0.534 ± 0.07, K -0.516 ± 0.062, Q -0.661 ± 0.073, E -0.44 ± 0.062, N -0.56 ± 0.094, S -0.461 ± 0.056, H -0.447 ± 0.067, G -0.735 ± 0.056, A -0.705 ± 0.064
E9: D -0.049 ± 0.047, H -0.155 ± 0.079, I -0.552 ± 0.072, R -0.232 ± 0.036, W -0.506 ± 0.064, A -0.057 ± 0.038, M -0.317 ± 0.05, Q -0.038 ± 0.051, V -0.517 ± 0.038, T -0.197 ± 0.048, G -0.433 ± 0.039, L -0.36 ± 0.041, C -0.33 ± 0.075, P -0.716 ± 0.071, Y -0.338 ± 0.069, S -0.2 ± 0.04, F -0.545 ± 0.066
A23: K -0.052 ± 0.047, H 0.066 ± 0.076, C -0.055 ± 0.053, E -0.102 ± 0.061, P 0.021 ± 0.052, D -0.108 ± 0.058, L 0.008 ± 0.034, M 0.06 ± 0.058, I 0.011 ± 0.062, Q -0.005 ± 0.053, F -0.121 ± 0.066
L12: N 0.081 ± 0.11, P -0.645 ± 0.12, M 0.011 ± 0.079, F -0.075 ± 0.13, S 0.028 ± 0.081, I -0.026 ± 0.22, W -0.063 ± 0.096, K -0.029 ± 0.22, R 0.127 ± 0.06, C -0.06 ± 0.099, G -0.035 ± 0.067, H -0.032 ± 0.34, E -0.085 ± 0.076, T -0.155 ± 0.11, Q 0.01 ± 0.17, D -0.047 ± 0.17, A 0.111 ± 0.069, Y 0.066 ± 0.14
V18: E -0.507 ± 0.086, F -0.832 ± 0.15, K -0.562 ± 0.093, T -0.784 ± 0.1, P -0.402 ± 0.084, Q -0.647 ± 0.079, D -0.746 ± 0.17, N -0.906 ± 0.14, Y -0.739 ± 0.13, S -0.465 ± 0.065, R -0.657 ± 0.058, C -0.218 ± 0.1, L -0.404 ± 0.044, G -0.707 ± 0.056, W -0.861 ± 0.096, M -0.396 ± 0.093, A -0.377 ± 0.054
F20: L -0.286 ± 0.042, Q -0.657 ± 0.065, A -0.499 ± 0.048, K -0.45 ± 0.061, I -0.114 ± 0.12, T -0.395 ± 0.059, Y -0.291 ± 0.11, C -0.361 ± 0.088, R -0.569 ± 0.046, H -0.699 ± 0.096, N -0.779 ± 0.17, M -0.305 ± 0.058, P -0.654 ± 0.062, W 0.036 ± 0.061, S -0.429 ± 0.048, D -0.613 ± 0.11
S5: P -0.528 ± 0.16, F -0.512 ± 0.2
K13: V -0.215 ± 0.055, F -0.436 ± 0.11, C -0.296 ± 0.084, D -0.327 ± 0.085, Y -0.323 ± 0.1, Q -0.079 ± 0.069, W -0.59 ± 0.074, E -0.183 ± 0.072, G -0.308 ± 0.043, M -0.213 ± 0.09, R -0.071 ± 0.046, T -0.246 ± 0.079, S -0.194 ± 0.049, L -0.213 ± 0.042, P -0.528 ± 0.085, A -0.019 ± 0.056, I -0.26 ± 0.096
N19: C 0.027 ± 0.11, S 0.006 ± 0.051, K 0.082 ± 0.061, M -0.048 ± 0.058, D -0.229 ± 0.099, V -0.101 ± 0.048, I -0.15 ± 0.075, P -0.698 ± 0.07, A -0.047 ± 0.051, F -0.062 ± 0.089, W -0.246 ± 0.062, Y -0.167 ± 0.084, T 0.037 ± 0.052, L -0.069 ± 0.041, R 0.077 ± 0.044, H 0.011 ± 0.078, G -0.323 ± 0.053
